The values below come from publication PMC6131177.

Experiment [1] concerns the target T1, Bacteriorhodopsin (Halobacterium salinarum S9), P02945.
T1 chain: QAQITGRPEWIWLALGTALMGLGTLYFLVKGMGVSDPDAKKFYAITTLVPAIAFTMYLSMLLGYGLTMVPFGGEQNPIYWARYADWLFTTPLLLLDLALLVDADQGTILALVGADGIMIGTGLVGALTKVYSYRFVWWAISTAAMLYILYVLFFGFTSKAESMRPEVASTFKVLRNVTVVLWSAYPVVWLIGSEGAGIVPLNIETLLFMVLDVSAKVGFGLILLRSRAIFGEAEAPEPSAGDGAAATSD
Kind of experiment: circular dichroism in the visible range; bR in PMND (cE3D1 nanodisc assembled directly from PM), SEC-purified early fractions 1 to 6; 700-400 nm, 20 °C; a biphasic signal marks the trimer. Conditions: remark: other sources report otherwise. Background: Circular dichroism is the unequal absorption of left and right circularly polarised light.

Experiment [2] addresses T1, Bacteriorhodopsin (Halobacterium …). Kind of experiment: circular dichroism in the visible range; bR in native purple membrane (PM); 700-400 nm, 20 °C; a biphasic signal marks the trimer. Conditions: remark: other sources report otherwise.

By stoichiometry N is commonly meant a count of units in the complex or per binding partner.

B1: Bacteriorhodopsin, P02945 14-262 (natural protein)
chain: T1 chain
modifications: here or on the partner: retinal Schiff base (residue not given); retinal Schiff base (residue not given)
As to B1, the stoichiometry N in experiment [1] and in experiment [2] was 3 each time.
